Experimental data taken from publication PMC10842012.

Columns and labels:
[1] = target: HRP29 decoration protein gp48 (Shigella phage HRP29); test: cryo-EM structure
[2] = target: HRP29 tailspike protein gp52 (Shigella phage HRP29); test: negative-stain electron microscopy with 2D classes and 3D reconstruction
[3] = target: HRP29 portal protein gp35 (Shigella phage HRP29); test: cryo-EM structure
[4] = target: HRP29 tailspike adapter protein gp44 (in the virion) (Shigella phage HRP29); test: cryo-EM structure

HRP29 decoration protein gp48 (natural protein)
stoichiometry N [1]: 2

HRP29 tailspike protein gp52 (natural protein)
stoichiometry N [2]: 3

HRP29 portal protein gp35 (natural protein)
stoichiometry N [3]: 12

HRP29 tailspike adapter protein gp44 (in the virion) (natural protein)
stoichiometry N [4]: 3
